# B1: Stat3β: dominant-negative Stat3 variant, truncated form lacking the transactivation domain; delivered by the pIRES-Stat3β expression vector (protein)
# chain: AQWNQLQQLDTRYLEQLHQLYSDSFPMELRQFLAPWIESQDWAYAASKESHATLVFHNLLGEIDQQYSRFLQESNVLYQHNLRRIKQFLQSRYLEKPMEIARIVARCLWEESRLLQTAATAAQQGGQANHPTAAVVTEKQQMLEQHLQDVRKRVQDLEQKMKVVENLQDDFDFNYKTLKSQGDMQDLNGNNQSVTRQKMQQLEQMLTALDQMRRSIVSELAGLLSAMEYVQKTLTDEELADWKRRQQIACIGGPPNICLDRLENWITSLAESQLQTRQQIKKLEELQQKVSYKGDPIVQHRPMLEERIVELFRNLMKSAFVVERQPCMPMHPDRPLVIKTGVQFTTKVRLLVKFPELNYQLKIKVCIDKDSGDVAALRGSRKFNILGTNTKVMNMEESNNGSLSAEFKHLTLREQRCGNGGRANCDASLIVTEELHLITFETEVYHQGLKIDLETHSLPVVVISNICQMPNAWASILWYNMLTNNPKNVNFFTKPPIGTWDQVAEVLSWQFSSTTKRGLSIEQLTTLAEKLLGPGVNYSGCQITWAKFCKENMAGKGFSFWVWLDNIIDLVKKYILALWNEGYIMGFISKERERAILSTKPPGTFLLRFSESSKEGGVTFTWVEKDISGKTQIQSVEPYTKQQLNNMSFAEIIMGYKIMDATNILVSPLVYLYPDIPKEEAFGKYCRPESQEHPEADPGAAPYLKTKFICVTFIDAVWK
# How the values were obtained:
# Stat3 = target: T1, Stat3 (Mus musculus, UniProt P42227); assay: EMSA of Stat3 DNA-binding activity in nuclear extracts of transfected B16 cells; assay type: cell-based, murine; conditions: B16 cells transfected with Stat3β, hSIE probe
# T1 construct: endogenous in cells; host or cells: B16 murine melanoma cells (nuclear extracts)
# T1 sequence (P42227 whole entry): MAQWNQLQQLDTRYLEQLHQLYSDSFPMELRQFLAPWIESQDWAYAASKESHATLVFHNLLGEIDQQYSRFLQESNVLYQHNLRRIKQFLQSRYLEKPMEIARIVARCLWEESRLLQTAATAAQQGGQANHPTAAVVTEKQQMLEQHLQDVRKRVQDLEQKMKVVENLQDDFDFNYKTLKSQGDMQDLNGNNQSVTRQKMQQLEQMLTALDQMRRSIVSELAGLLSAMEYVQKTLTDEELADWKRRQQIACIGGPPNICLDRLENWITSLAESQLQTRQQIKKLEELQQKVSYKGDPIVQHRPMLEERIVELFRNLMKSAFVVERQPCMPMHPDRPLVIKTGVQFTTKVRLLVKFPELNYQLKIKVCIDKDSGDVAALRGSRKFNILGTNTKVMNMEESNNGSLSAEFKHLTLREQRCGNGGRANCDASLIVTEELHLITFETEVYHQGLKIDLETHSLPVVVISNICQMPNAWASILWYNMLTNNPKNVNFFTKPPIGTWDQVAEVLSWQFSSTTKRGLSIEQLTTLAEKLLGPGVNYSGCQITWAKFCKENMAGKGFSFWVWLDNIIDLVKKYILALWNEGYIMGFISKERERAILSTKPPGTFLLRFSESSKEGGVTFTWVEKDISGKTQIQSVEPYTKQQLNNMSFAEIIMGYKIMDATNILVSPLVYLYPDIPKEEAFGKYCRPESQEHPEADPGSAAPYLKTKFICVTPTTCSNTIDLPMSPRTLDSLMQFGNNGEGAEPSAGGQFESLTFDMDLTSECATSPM
# Protocol: FIG. 1. Inhibition of endogenous Stat3 (SEQ. ID. NO: 1; SEQ. ID. NO:2) DNA-binding activity in B16 cells by overexpression of Stat3β (SEQ. ID. NO:3; SEQ. ID. NO:4). EMSA was performed with nuclear extracts prepared from B16 cells transfected with no DNA (lane 1), empty vector (lane 2) or Stat3β expression vector (lane 3). Extracts from NIH3T3 fibroblasts stimulated with EGF were used as a positive control for Stat1 and Stat3 (lane 4). Supershifts were performed using antibodies recognizing either Stat3 (α-ST3) or Stat3:3 (α-ST3β) with extracts derived from B16 cells transfected with no DNA (lanes 5-7), the empty vector (lanes 8-10), or Stat3β vector (lanes 11-13). ST3:3, and ST1:3, ST1:1 indicate migration of complexes containing Stat3 or Stat3β homodimers, Stat1/Stat3 heterodimers and Stat1/Stat1 homodimers, respectively. The asterisk indicates the position of supershifted complexes.
# Nuclear extracts and EMSA. Nuclear extract preparation and EMSA analysis of STAT DNA-binding activity were performed as previously described Catlett-Falcone et al., 1999, supra.
# EGF-induced Stat3 binding activity in NIH3T3 (lane 4) was used as a positive control. By supershift analysis with antibody that recognizes Stat3 but not Stat3β or antibody that recognizes Stat3β but not Stat3, it was shown that there were Stat3-Stat3 homodimers in mock-transfected B16 cells and empty vector-transfected B16 cells.
# B16 cells [1] = assay: Cell growth inhibition assay, live cells by trypan blue exclusion; assay type: cell-based, murine; conditions: 48 h later, vs pIRES-EGFP
# Protocol: Cell growth inhibition assay. Cells were plated at 1.7×10^5 cells/well in 6-well plates, followed by transfection with either pIRES-EGFP or pIRES-Stat3β plasmids 24 h later. Cells were harvested at 24 h, 48 h or 72 h to determine the numbers of live cells. Cell viability was determined by trypan blue exclusion.
# (§1) This G0/G1 phase arrest was observed as early as 24 hourspost transfection. At 48 hours post transfection with Stat3β vector, Annexin V-PE staining followed by FACS analysis to detect apoptotic activity was performed with transfected B16 cells. A high level of apoptosis in Stat3β transfected cells (75%) relative to empty vector transfected cells (25%) was observed, as shown in FIG. 2C. Increased levels of apoptosis as a result of Stat3β transfection was confirmed by confocal laser scanning microscope analysis using rhodamine-labelled TUNEL assay.
# B16 cells [2] = assay: Cell cycle analysis by propidium iodide staining and FACS; assay type: cell-based, murine; conditions: transfected B16 cells, from 24 hours post transfection
# Protocol: Cell cycle analysis. Cell cycle analysis based on DNA content was performed. Cells were harvested, washed twice in PBS and resuspended in 70% ethanol on ice for at least 30 min. After centrifugation, cells were resuspended in 1 ml of propidium iodide staining solution (50 μg propidium iodide, 1 mg RNase A and 1 mg glucose per ml PBS) and incubated at room temperature for 30 min. The cells were analyzed by FACS using ModFit LT cell cycle analysis software (Verity Software, Topsham, Me.). Cells transfected with vectors encoding EGFP were fixed in 1 ml of 0.5% formaldehyde on ice for 10 min. before adding 70% ethanol.
# as §1
# B16 cells [3] = assay: RNase protection assays of cytokine and chemokine RNA in B16 cells; assay type: cell-based, murine; conditions: 36 h after transfection
# Protocol: FIG. 7A-B. Stat3β expression in B16 cells upregulates the expression of pro-inflammatory chemokines and cytokines, which can stimulate peritoneal macrophages to produce NO. Elevated expression of pro-inflammatory cytokines and chemokines in B16 cells as a result of Stat3β expression (A. TNF-α, IL-6, IFN-β; B. IP-10). Total RNAs were prepared form mock-transfected, GFP-transfected, Stat3β-transfected and UV-irradiated B16 cells. Data shown have been confirmed with at least one more experiment, in which RNAs were prepared from independent transfectants and UV-irradiated B16 tumor cells.
# RNase protection assays. 10 μg of total RNA isolated from either pIRES-EGFP- or pIRES-Stat3 β-transfected B16 cells (36 h after transfection) was hybridized to multi-template probes from PharMingen (mCK-5, Top Panel; mCK-3, Lower Panel) that were labeled with ^32P-dUTP using in vitro transcription. The RNA encoded by GAPDH housekeeping gene was used to normalize the amounts of RNAs loaded in each lane. Similar protocols were used to determine RNA expression profiles of macrophages treated with supernatants derived from B16 cells transfected with either Stat3β or GFP vector. […]
# RNA expression profiles of a number of cytokines and chemokines in pIRES-Stat3β transfected B16 cells were determined. […]
# [4] = test system: peritoneal macrophages and lymphocytes; assay: Mice injected with transfected B16 cells: macrophage NO production and lymphocyte IFN-γ ELISPOT; assay type: in vivo; conditions: transfected B16 cells injected into mice
# Protocol: FIG. 9A-B. Expression of Stat3β in tumor cells leads to activation of macrophages and T lymphocytes in vivo. Mice were injected with B16 cells (2×10^6/mouse) transfected with either GFP or Stat3β expression vectors. Five days later, peritoneal macrophages and lymphocytes were tested for NO production and IFN-γ production, respectively. A. NO production by peritoneal macrophages. B. IFN-γ ELISPOT of lymphocytes.
# In addition to direct tumoricidal effect shown herein with production of NO by macrophages, innate immunity critically impacts the development of adaptive immune responses. […] Furthermore, a four-fold increase in IFN-γ production by lymphocytes derived from mice injected with Stat3β-transfected B16 cells was also detected (FIG. 9B).
# VEGF promoter = VEGF promoter luciferase reporter in B16 and SCK tumor cells; assay type: cell-based; conditions: B16 and SCK murine tumor cells, co-transfection
# Source text: FIG. 12A-B. Blocking Stat3 signaling in tumor cells inhibits VEGF promoter activity. Both B16 (A) and SCK (B) murine tumor cells were transfected with constructs containing the luciferase cDNA in the absence (pluc) or presence of the VEGF promoter (VEGF).
# A plasmid construct containing the luciferase cDNA in the absence of the VEGF promoter was also transfected into 3T3 fibroblasts. Both of B16 and SCK tumor cells harbor constitutively activated Stat3. In the absence of Stat3β, VEGF promoter activity was readily detectable in both tumor cells as indicated by the high expression levels of luciferase protein. […] The inhibitory effect of Stat3β on the transcriptional activity of the VEGF promoter was also observed in the tumor cells transfected with Stat3 anti-sense oligonucleotides (FIG. 12A-B). It was also shown that blocking Stat3 signaling in tumor cells inhibits the expression of the endogeneous VEGF gene. B16 tumor cells were transiently transfected with Stat3β and the expression of endogeneous VEGF gene was determined at the RNA and protein levels.
molecule,measurement,setting,value
B1,Stat3 DNA-binding complexes (supershift analysis),Stat3,mostly Stat3β-Stat3β homodimer formation
same,number of live B16 cells,B16 cells [1],decreases dramatically
same,cell cycle distribution,B16 cells [2],progressive accumulation in G0/G1 phase
same,expression levels of IL-4 and IL-10 mRNAs,B16 cells [3],"but not IL-4 and IL-10, were elevated"
same,"expression levels of IFN-β, TNF-α, IL-6 and IP-10 mRNAs","B16 cells [3]; vs mock, control vector and UV-irradiated B16 cells",elevated
same,increase in IFN-γ production by lymphocytes,[4]; ELISPOT,four-fold
same,NO production by peritoneal macrophages,[4]; five days later,clear induction of NO production
same,transcriptional activity of the VEGF promoter (luciferase),VEGF promoter,greatly inhibited
